These results are taken from the nanobody polyreactivity screen of Harvey et al. (2022).

The series can be described thus: yeast display, Sf9 membrane polyspecificity reagent, FACS + sequencing; frameworks hold sequencing errors. In a few lines:
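In a synthetic yeast display library (Saccharomyces cerevisiae BJ5465), nanobody expression was induced with galactose for 36–48 hours. FACS gates were set low and high (top ~1%) using anti-HA fluorescence for expression and streptavidin fluorescence for binding of the Sf9 membrane reagent. Each polyreactivity label is drawn from the gate of origin.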
As for “QVQLVESGGGLVQAGGSLRLSCAASGRTFGRYAMGWYRQAPGKERELVAAISIRGGRTTYADSVKGRFTISRDNAKNTVYLQMNSLKPEDTAVSYCAKVISVRGGYGYWGQGTQVTVSS”, the “polyreactivity (PSR sort gate)” value is reported as “high polyreactivity”.
The result for “QVQLVESGGGLVQAGGSLRLSCAASGRTFGRYAMGWYRQAPGKERELVAAITRGGSTNYADSVKGRFTISRDNAKNTVYLQMNSLKPEDTAVYYCAKSVRYRYDYWGQGTQVTVSS” reads “high polyreactivity”; that for “QVQLVESGGGLVQAGGSLRLSCAASGRTFGRYAMGWYRQAPGKERELVATISVSSGSTYYADSVKGRFTISRDTAKNTVYLQMNSLKPEDTAVYYCNAVYGRQYRGYNYKYYYWGQGTQVTVSS”, “high polyreactivity”; that for “QVQLVESGGGLVQAGGSLRLSCAASGRTFGRYAMGWYRQAPGKERELVATITSGGSTNYADSVKGRFTITRDNAKNTVYLQMNSLKPEDTAVYYCAAEFSPSRWAYSEGALRYNYWGQGTQVTVSS”, “low polyreactivity”.
The result for “QVQLVESGGGLVQAGGSLRLSCAASGRTFGRYAMGWYRQAPWKERELVAVINGGGSTYYADSVKGRFTISRDNAKNTVYLQMNSLKPEDTAVDYCAVGGYTRTGGWFDYWGQGTQVTVSS” reads “high polyreactivity”.
In the case of “QVQLVESGGGLVQAGGSLRLSCAASGRTFGRYAMGWYRQATGKERELVAAISTGGRTYYADSVKGRFTISRDNAKNTVYLQMNSLKPEDTEVYYCNRVVVVGILEMGYWGQGTQVTVSS”, the “polyreactivity (PSR sort gate)” value is reported as “low polyreactivity”.
The result for “QVQLVESGGGLVQAGGSLRLSCAASGRTFGRYARGWYRQAPGKETELVAAIRSGASTYYADSVKGRFTISRDNAKNTVYLQKNSLKPEDTAVYYCAVDTLQGARVTSPSGDYDYWGQGTQVTVSS” reads “low polyreactivity”; that for “QVQLVESGGGLVQAGGSLRLSCAASGRTFGRYVMGWYRQAPGKERELVAAITSSSSSTYADSVKGRFTISRDNAKNTVHLEMNSLKPEDTAVYYCNKRFPSRHRPEYDYWGQGTQVTVSS”, “high polyreactivity”.
Under “QVQLVESGGGLVQAGGSLRLSCAASGRTFGSNAMGWYRQAPGKERELVAAISFSGGSTYYADSVKGRFTISRDNAKNTVYLQMNSLKPEDTAVYYCAAEYPQKGDRGSRRRIDGYWGQGTQVTVSS” stands “high polyreactivity”; under “QVQLVESGGGLVQAGGSLRLSCAASGRTFGSNAMGWYRQAPGKERELVAAISLRGGRTYYADSVKGRFTISRDNAKNTVYLQMNSLKPEDTAVYYCNAVHYLYGARSRLTYDYWGQGTQVTVSS”, “high polyreactivity”; under “QVQLVESGGGLVQAGGSLRLSCAASGRTFGSNAMGWYRQAPGKERELVAVISRRAGSTYADSVKGRFTISRDNAKNTVYLQMNSLKPEDTAVYYCATRWLYHQYYYWGQGTQVTVSS”, “high polyreactivity”.
The result for “QVQLVESGGGLVQAGGSLRLSCAASGRTFGSYAMGWNRQAPGKERELVAAISSSGGRTYYADSVKGRFTISRDNAKNTVYLQMNSLKPEDTGVYYCNADVQWNIWEYDYWGQGTQVTVSS” reads “high polyreactivity”; that for “QVQLVESGGGLVQAGGSLRLSCAASGRTFGSYAMGWYRQAPGKEREFVASITGATTNYADSVKGRFTISRDNAKNTVYLQMNSLKQEDTAVYYCATDVGFGRKQRPHRPGYGYWGQGTQVTVSS”, “low polyreactivity”.
As for “QVQLVESGGGLVQAGGSLRLSCAASGRTFGSYAMGWYRQAPGKERELVAAINWSGSSTYYADSVKGRFTISRDNAKNTVYLQMNSLKPEDTAVYYCAATPSFYRSYQGMDYWGQGTQVTVSS”, the “polyreactivity (PSR sort gate)” value is “high polyreactivity”.
As to “QVQLVESGGGLVQAGGSLRLSCAASGRTFGSYAMGWYRQAPGKERELVAAISSGGRTYYADSVKGRFTISRDNAKNTVYLQMNSLKPEDTAVYYCAARLISYKTPGGYNYWGQGTQVTVSS”, the “polyreactivity (PSR sort gate)” value was “high polyreactivity”.
Under “QVQLVESGGGLVQAGGSLRLSCAASGRTFGSYAMGWYRQAPGKERELVAAISVSGDSTFYADSVKGRFTISRDNAKNTVYLQMNSLKQEDTAVYYCAARDYVEFWGQGTQVTVSS” stands “low polyreactivity”; under “QVQLVESGGGLVQAGGSLRLSCAASGRTFGSYAMGWYRQAPGKERELVAAISYRGSTYYADSVKGRFTISRDNAKNTVYLQMNSLKPEDTAVYYCAARSYGGYGYWGQGTQVTVSS”, “high polyreactivity”.
Under “QVQLVESGGGLVQAGGSLRLSCAASGRTFGSYVMGWYRQAPGKERELVATISRRGGTTYYADSVKGRYTISRDNAKNTVYLQMNSLKPEDTAVYYCAAKYFGTRYDYWGQGTQVTVSS” stands “high polyreactivity”.
On to “QVQLVESGGGLVQAGGSLRLSCAASGRTFGTNAMGWYRLAPGKEWELVASISGGTRTNYADSVKGRFTISRDNAKNTVYLQMNSLKPEDTAVYSCAAEVGLPTWYTLPVDDYDYWGQGTQVTVSS”, for which the “polyreactivity (PSR sort gate)” value was “low polyreactivity”.
The result for “QVQLVESGGGLVQAGGSLRLSCAASGRTFGTYDMGWYRQAPGKERELVAGINGSGGSTYYADSVKGRFTISRDNAKNTVYLQMNSLKPEDTAVYYCAADRRFSTYDYWGQGTQVTVSS” reads “high polyreactivity”; that for “QVQLVESGGGLVQAGGSLRLSCAASGRTFGVNAMGGYRQAPGKERELVAAISKRGGSTYYADSVKGRFTISRDNAKNTVYLQMNSLKPEDTAVYYCAKDQPHRGPMDYWGQGTQVTVSS”, “high polyreactivity”; that for “QVQLVESGGGLVQAGGSLRLSCAASGRTFGVNAMGWYRQAPGKERELVAVISRSTGSTYYADSVKGRFTISRDNAKNTVYLQMNSLKPEDTAVYYCAAGFWVRGFRRFDYWGQGTQVTVSS”, “high polyreactivity”.
The result for “QVQLVESGGGLVQAGGSLRLSCAASGRTFGVNAMGWYRQAPRKERELVAAINRGGSTYYADSVKGRFTISRDNAKNTVYLQMISLNPEDTAVYYCAAYVSAVHGISGYWGQGTQVTVSS” reads “low polyreactivity”; that for “QVQLVESGGGLVQAGGSLRLSCAASGRTFGVNMGWYRQAPGKERELVAGITSGGSTYYADSVKGRFTISRDNAKNTVYLQMNSLKPEDTAVFYCAKSYRGKWSPYYYWGQGTQVTVSS”, “high polyreactivity”.
For the sequence “QVQLVESGGGLVQAGGSLRLSCAASGRTFGVYVMGWSRQAPGKERELVAVITISGGSTYYADSVKGRFTISRDNAKNTVYLQMNSLKPEDTAVYYCAARTYYGYDYWGQGTQVTVSS”, the “polyreactivity (PSR sort gate)” value is “high polyreactivity”.
Regarding “QVQLVESGGGLVQAGGSLRLSCAASGRTFGWYAMGWYRQAPGKEREFVAVISRSGTNTYYADSVKGRFTISRDNAKNTVYLQMNSLKPEDTAVYYCAAVRSSQSYYYWGQGTQVTVSS”, the “polyreactivity (PSR sort gate)” value was “high polyreactivity”.
In the case of “QVQLVESGGGLVQAGGSLRLSCAASGRTFGWYTKGWYRQAPGKERELVAAISRSGTSTYYADSVKGRFTISRDNAKNTVYLQMNSLKPEDTAVYYCAAGPWAYGRRHSYYSYGYWGQVTQVTVSS”, the “polyreactivity (PSR sort gate)” value is reported as “high polyreactivity”.
The result for “QVQLVESGGGLVQAGGSLRLSCAASGRTFGWYTMGWYRQAPGKEREFVAAISSSDTSTYYADSVKGRFTISRDNAKNTVYLQMNSLKPEDTAVYYCAADPPSWRWFVGYSYDYWGQGTQVTVSS” reads “low polyreactivity”; that for “QVQLVESGGGLVQAGGSLRLSCAASGRTFGYNAMGRYRQAPGKERELVAAIRYSGGSTYYADSVKGRFTISRDNAKNTVYLQMNSLKPEDTAVYYCAKESRRYYRGYYYWGQGTQVTVSS”, “high polyreactivity”.
Take “QVQLVESGGGLVQAGGSLRLSCAASGRTFGYNAMGWYIQAPGKERELVAAINWSGASTYYADSVKGRFTISRDNAKNTVYLQMNSLKPEDTAVYYCAADYSYIYGFDYWGQGTQVTVSS”: the “polyreactivity (PSR sort gate)” value is on record as “low polyreactivity”.
Under “QVQLVESGGGLVQAGGSLRLSCAASGRTFGYNAMGWYRQAPGKERELVASISWSGGTTYYADSVKGRFTISRDNAKNTVYLQMNSLKPEDTAVYYCAADRQSYVTRLYRSYWGNYWGQGTQVTVSS” stands “high polyreactivity”; under “QVQLVESGGGLVQAGGSLRLSCAASGRTFGYNAMGWYRQAPGKESEFVAAISWSGGRTYYADSVKGRFTISRDNAKNTVYLQMNSLKPEDTAVYYCAAGFGDGPGNGYYTRYSWDDDYWGQGTQVTVSS”, “low polyreactivity”.
“QVQLVESGGGLVQAGGSLRLSCAASGRTFGYNTMGWYRQAPGKERELVATIRTNGVSTYYADSVKGRFTISRDNAKNTVYLQMNSLKPEDTAVYYCNAPRTRKQKTIYVNAPGNYWGQGTQVTVSS”: the “polyreactivity (PSR sort gate)” value was “low polyreactivity”.
As for “QVQLVESGGGLVQAGGSLRLSCAASGRTFGYNVMGWYRQAPGKERELVAAINRGGGSTYYADSVKGRFTISRDNANNTVYLQMNSLKPEDTAVYYCIKRYRVWFDYWGQGTQVTVSS”, the “polyreactivity (PSR sort gate)” value is “high polyreactivity”.
“QVQLVESGGGLVQAGGSLRLSCAASGRTFGYNVMGWYTQAPGKERELVAGISESGGRTYYADSVKGRVTISRDNAKNTVYLQMNSLKPEDTAVYYCAKRYQRASYDYWGQGTQVTVSS”: the “polyreactivity (PSR sort gate)” value was “high polyreactivity”.
The result for “QVQLVESGGGLVQAGGSLRLSCAASGRTFGYYALGWYRQAPGKERELVAAISSNTDSTYYADSVKGRFTISRDNEKNTVYLQMNSLKPEDTAVYYCAAEAYSYYPGTYEDDYWGQGTQVTVSS” reads “low polyreactivity”; that for “QVQLVESGGGLVQAGGSLRLSCAASGRTFGYYAMGWYRPAPGKERELVAAITSSSSTNYADSVKGRFTISRDNAKNTVYLQMNSLKPEDTAVYYCAAYGYYRSGYRALEGYWGQGTQVTVSS”, “high polyreactivity”; that for “QVQLVESGGGLVQAGGSLRLSCAASGRTFGYYAMGWYRQAPGKEREFVAAIWGGTSTYYADSVKGRFTISRDNAKNTVYLQMNSLKPEDTAVYYCAAEGWLYPTGYSTLHYEYDYWGQGTQVTVSS”, “low polyreactivity”.
Under “QVQLVESGGGLVQAGGSLRLSCAASGRTFGYYAMGWYRQAPGKERELVAAISWRGGSTYYADSVKGRFTISRDNAKNTVYLQMNSLKPEDTAVYYCNRAYVYPQGPYPYDYWGQGTQVTVSS” stands “high polyreactivity”.
Under “QVQLVESGGGLVQAGGSLRLSCAASGRTFGYYAMGWYRQAPGKERELVAALSTSGGSTHYADSVKGRFTISRDNAKNTVSLQMNSLKPEDTAVYYCNARLRTGTPYKYVSYNSWGQGTQVTVSS” stands “high polyreactivity”.
